These results are taken from patent US20090227489A1 (UNIVERSITY OF SOUTH FLORIDA A FLORIDA, published 2009).

This data set concerns the molecule itself. The data set is described as follows: EMSA supershift, hSIE probe, nuclear extracts of Stat3β-transfected B16 cells. The text has this:
EGF-induced Stat3 binding activity in NIH3T3 (lane 4) was used as a positive control. By supershift analysis with antibody that recognizes Stat3 but not Stat3β or antibody that recognizes Stat3β but not Stat3, it was shown that there were Stat3-Stat3 homodimers in mock-transfected B16 cells and empty vector-transfected B16 cells. Overexpression of Stat3β in Stat3β-transfected B16 cells results in mostly Stat3β-Stat3β homodimer formation.
Background: Mobility shift assays separate free from complexed probe on a gel.

B1: Stat3β, dominant-negative Stat3 variant (ectopic, from pIRES-Stat3β) (other)
chain: AQWNQLQQLDTRYLEQLHQLYSDSFPMELRQFLAPWIESQDWAYAASKESHATLVFHNLLGEIDQQYSRFLQESNVLYQHNLRRIKQFLQSRYLEKPMEIARIVARCLWEESRLLQTAATAAQQGGQANHPTAAVVTEKQQMLEQHLQDVRKRVQDLEQKMKVVENLQDDFDFNYKTLKSQGDMQDLNGNNQSVTRQKMQQLEQMLTALDQMRRSIVSELAGLLSAMEYVQKTLTDEELADWKRRQQIACIGGPPNICLDRLENWITSLAESQLQTRQQIKKLEELQQKVSYKGDPIVQHRPMLEERIVELFRNLMKSAFVVERQPCMPMHPDRPLVIKTGVQFTTKVRLLVKFPELNYQLKIKVCIDKDSGDVAALRGSRKFNILGTNTKVMNMEESNNGSLSAEFKHLTLREQRCGNGGRANCDASLIVTEELHLITFETEVYHQGLKIDLETHSLPVVVISNICQMPNAWASILWYNMLTNNPKNVNFFTKPPIGTWDQVAEVLSWQFSSTTKRGLSIEQLTTLAEKLLGPGVNYSGCQITWAKFCKENMAGKGFSFWVWLDNIIDLVKKYILALWNEGYIMGFISKERERAILSTKPPGTFLLRFSESSKEGGVTFTWVEKDISGKTQIQSVEPYTKQQLNNMSFAEIIMGYKIMDATNILVSPLVYLYPDIPKEEAFGKYCRPESQEHPEADPGAAPYLKTKFICVTFIDAVWK
notes: ID; NO:3; NO:4'; It was expressed in B16 cells from pIRES-Stat3β and assayed in nuclear extracts; also called Stat3beta; ST3β
As to B1, the binding result is recorded as “binds”.
